*: point of attachment. Succinimide(1-Et,3-yl) = CCN1C(=O)CC(*)C1=O
Target: the molecule itself
Test: self-association, analytical gel filtration in 20 mM phosphate buffer, 150 mM NaCl, pH 7.4
Protocol: (A) Schematic representation of the four 40-amino acid peptides named MUB₄₀#1, MUB₄₀#2, MUB₄₀#3, MUB₄₀#4, overlapping and covering the MUB₇₀ sequence (Coïc et al., 2012) (from C-terminal to N-terminal, see FIG. 2). (B) Human colonic mucus layer was labelled with the MUB₄₀#1-Cy5 fluorescent conjugate (1 μg/mL, magenta). (C) Colonic goblet cell granules were labelled with MUB₄₀#1-Cy5 (1 μg/mL, magenta), which was not the case for MUB₇₀-Cy5 (Coïc et al., 2012) or MUB₄₀#2-#4 peptides (data not shown). Actin (red); bar, 20 μm. (D) Elution profiles of MUB₄₀ peptides (#1-#4) were obtained by analytical gel filtration (absorbance at 280 nm). Samples were prepared at 10 μg/ml in the elution buffer (20 mM phosphate buffer, 150 mM NaCl, pH7.4). MUB₄₀#1 assembled as a trimer, similarly to MUB₇₀ (Coïc et al., 2012), not MUB₄₀#2, MUB₄₀#3, and MUB₄₀#4. […] (E) Far-UV Circular Dichroism spectra of the four MUB₄₀ peptides at 60 μM in 20 mM sodium phosphate buffer (pH 7.4) in the presence of 50 mM NaCl, showing a specific structural signal of MUB₄₀#1, compared to others peptides. (F) A human colonic explant was infected with Shigella flexneri pGFP (green) and labelled with MUB₄₀#1-Cy5 (1 μg/mL, magenta) and Dapi (blue) after fixation and permeabilization. The colonic mucus layer and infiltrated neutrophils (see (G)), were labelled with MUB₄₀#1-Cy5, as imaged by two-photon microscopy. Bar, 50 μm (G) The labelling of polymorphonuclear neutrophils with MUB₄₀#1-Cy5 (1 μg/mL, magenta) was confirmed on human purified neutrophils, showing a granular staining. Nucleus was stained with Dapi (blue). Bar, 5 μm.

Row | Protein | binding result
1 | Ac-C(Succinimide(1-Et,3-yl))TAEGIKKFEGDGYELFKDNFPAGEKFDNDDTNDQFYTVIF-NH2 (not fully specified, Unlabelled peptide as used in analytical gel filtration; trimer) [MUB40#1] | binds
2 | Ac-C(Succinimide(1-Et,3-yl))GYTDETIPYSTAEGIKKFEGDGYELFKDNFPAGEKFDNDD-NH2 (not fully specified, Unlabelled peptide as used in analytical gel filtration; 'rather organized as tetramers') [MUB40#2] | binds
3 | Ac-C(Succinimide(1-Et,3-yl))VHVQYIDGETDQMLRQDDLDGYTDETIPYSTAEGIKKFEG-NH2 (not fully specified, Unlabelled peptide as used in analytical gel filtration; 'rather organized as tetramers') [MUB40#4] | binds
4 | Ac-C(Succinimide(1-Et,3-yl))DQMLRQDDLDGYTDETIPYSTAEGIKKFEGDGYELFKDNF-NH2 (not fully specified, Unlabelled peptide as used in analytical gel filtration; 'rather organized as tetramers') [MUB40#3] | binds

From US20200369729A1 (CENTRE NATIONAL DE LA RECHERCHE SCIENTIFIQUE, published 2020)
